{
  "source": "the supplement of paper PMC10567573",
  "parents": {"B1": {"name": "KLHL14 (parent)", "chain": "WLYCYDPVMDVWARKQDMNTKRAI"}},
  "data": [
    {"variants_of": "B1", "assay": "protein stability index of a GFP-peptide fusion (GPS, HEK-293T) (PSI 1-6); higher = more stable", "details": "c terminus: a fixed tail appended", "values": [
      {"variant": "WLYCYDPVMDVWARLQDMNTKRAI", "protein stability index": 2.21},
      {"variant": "WLYCYDPVMDVWARWQDMNTKRAI", "protein stability index": 1.48},
      {"variant": "WLYCYDPVMDVWARDQDMNTKRAI", "protein stability index": 1.97},
      {"variant": "WLYCYDPVMDVWAREQDMNTKRAI", "protein stability index": 2.21},
      {"variant": "WLYCYDPVMDVWARTQDMNTKRAI", "protein stability index": 1.71},
      {"variant": "WLYCYDPVMDVWARYQDMNTKRAI", "protein stability index": 2.08},
      {"variant": "WLYCYDPVMDVWARVQDMNTKRAI", "protein stability index": 1.89},
      {"variant": "WLYCYDPVMDVWARMQDMNTKRAI", "protein stability index": 1.54},
      {"variant": "WLYCYDPVMDVWARGQDMNTKRAI", "protein stability index": 1.56},
      {"variant": "WLYCYDPVMDVWARCQDMNTKRAI", "protein stability index": 2.29},
      {"variant": "WLYCYDPVMDVWARFQDMNTKRAI", "protein stability index": 1.76},
      {"variant": "WLYCYDPVMDVWARQQDMNTKRAI", "protein stability index": 1.95},
      {"variant": "WLYCYDPVMDVWARIQDMNTKRAI", "protein stability index": 2.11},
      {"variant": "WLYCYDPVMDVWARRQDMNTKRAI", "protein stability index": 2.14},
      {"variant": "WLYCYDPVMDVWARPQDMNTKRAI", "protein stability index": 1.64},
      {"variant": "WLYCYDPVMDVWARSQDMNTKRAI", "protein stability index": 1.79},
      {"variant": "WLYCYDPVMDVWARNQDMNTKRAI", "protein stability index": 2.03},
      {"variant": "WLYCYDPVMDVWARAQDMNTKRAI", "protein stability index": 1.68},
      {"variant": "WLYCYDPVMDVWARHQDMNTKRAI", "protein stability index": 1.94},
      {"variant": "WLYCYDPVLDVWARKQDMNTKRAI", "protein stability index": 2.17},
      {"variant": "WLYCYDPVQDVWARKQDMNTKRAI", "protein stability index": 2.6},
      {"variant": "WLYCYDPVHDVWARKQDMNTKRAI", "protein stability index": 2.24},
      {"variant": "WLYCYDPVFDVWARKQDMNTKRAI", "protein stability index": 1.62},
      {"variant": "WLYCYDPVADVWARKQDMNTKRAI", "protein stability index": 2.62},
      {"variant": "WLYCYDPVNDVWARKQDMNTKRAI", "protein stability index": 2.18},
      {"variant": "WLYCYDPVDDVWARKQDMNTKRAI", "protein stability index": 1.92},
      {"variant": "WLYCYDPVVDVWARKQDMNTKRAI", "protein stability index": 1.65},
      {"variant": "WLYCYDPVIDVWARKQDMNTKRAI", "protein stability index": 1.9},
      {"variant": "WLYCYDPVKDVWARKQDMNTKRAI", "protein stability index": 2.02},
      {"variant": "WLYCYDPVSDVWARKQDMNTKRAI", "protein stability index": 2.26},
      {"variant": "WLYCYDPVGDVWARKQDMNTKRAI", "protein stability index": 1.77},
      {"variant": "WLYCYDPVWDVWARKQDMNTKRAI", "protein stability index": 1.64},
      {"variant": "WLYCYDPVEDVWARKQDMNTKRAI", "protein stability index": 1.74},
      {"variant": "WLYCYDPVRDVWARKQDMNTKRAI", "protein stability index": 2.09},
      {"variant": "WLYCYDPVCDVWARKQDMNTKRAI", "protein stability index": 2.35},
      {"variant": "WLYCYDPVPDVWARKQDMNTKRAI", "protein stability index": 2.32},
      {"variant": "WLYCYDPVYDVWARKQDMNTKRAI", "protein stability index": 2.01},
      {"variant": "WLYCYDPVTDVWARKQDMNTKRAI", "protein stability index": 2.55},
      {"variant": "WLYCYDPNMDVWARKQDMNTKRAI", "protein stability index": 1.75},
      {"variant": "WLYCYDPWMDVWARKQDMNTKRAI", "protein stability index": 1.95},
      {"variant": "WLYCYDPEMDVWARKQDMNTKRAI", "protein stability index": 2.17},
      {"variant": "WLYCYDPIMDVWARKQDMNTKRAI", "protein stability index": 2.03},
      {"variant": "WLYCYDPLMDVWARKQDMNTKRAI", "protein stability index": 2.25},
      {"variant": "WLYCYDPCMDVWARKQDMNTKRAI", "protein stability index": 1.81},
      {"variant": "WLYCYDPYMDVWARKQDMNTKRAI", "protein stability index": 2.14},
      {"variant": "WLYCYDPDMDVWARKQDMNTKRAI", "protein stability index": 2.37},
      {"variant": "WLYCYDPRMDVWARKQDMNTKRAI", "protein stability index": 1.92},
      {"variant": "WLYCYDPQMDVWARKQDMNTKRAI", "protein stability index": 1.78},
      {"variant": "WLYCYDPKMDVWARKQDMNTKRAI", "protein stability index": 1.88},
      {"variant": "WLYCYDPMMDVWARKQDMNTKRAI", "protein stability index": 2.26},
      {"variant": "WLYCYDPTMDVWARKQDMNTKRAI", "protein stability index": 2.45},
      {"variant": "WLYCYDPHMDVWARKQDMNTKRAI", "protein stability index": 2.34},
      {"variant": "WLYCYDPGMDVWARKQDMNTKRAI", "protein stability index": 1.58},
      {"variant": "WLYCYDPPMDVWARKQDMNTKRAI", "protein stability index": 1.8},
      {"variant": "WLYCYDPAMDVWARKQDMNTKRAI", "protein stability index": 1.76},
      {"variant": "WLYCYDPFMDVWARKQDMNTKRAI", "protein stability index": 2.18},
      {"variant": "WLYCYDPSMDVWARKQDMNTKRAI", "protein stability index": 1.89},
      {"variant": "WLYCYDPVMDVPARKQDMNTKRAI", "protein stability index": 1.76},
      {"variant": "WLYCYDPVMDVKARKQDMNTKRAI", "protein stability index": 2.03},
      {"variant": "WLYCYDPVMDVCARKQDMNTKRAI", "protein stability index": 2.09},
      {"variant": "WLYCYDPVMDVIARKQDMNTKRAI", "protein stability index": 1.47},
      {"variant": "WLYCYDPVMDVMARKQDMNTKRAI", "protein stability index": 1.77},
      {"variant": "WLYCYDPVMDVNARKQDMNTKRAI", "protein stability index": 2.2},
      {"variant": "WLYCYDPVMDVSARKQDMNTKRAI", "protein stability index": 1.5},
      {"variant": "WLYCYDPVMDVYARKQDMNTKRAI", "protein stability index": 2.09},
      {"variant": "WLYCYDPVMDVVARKQDMNTKRAI", "protein stability index": 1.95},
      {"variant": "WLYCYDPVMDVTARKQDMNTKRAI", "protein stability index": 2.11},
      {"variant": "WLYCYDPVMDVLARKQDMNTKRAI", "protein stability index": 2.07},
      {"variant": "WLYCYDPVMDVEARKQDMNTKRAI", "protein stability index": 2.06},
      {"variant": "WLYCYDPVMDVHARKQDMNTKRAI", "protein stability index": 2.04},
      {"variant": "WLYCYDPVMDVDARKQDMNTKRAI", "protein stability index": 2.23},
      {"variant": "WLYCYDPVMDVAARKQDMNTKRAI", "protein stability index": 1.89},
      {"variant": "WLYCYDPVMDVGARKQDMNTKRAI", "protein stability index": 2.1},
      {"variant": "WLYCYDPVMDVFARKQDMNTKRAI", "protein stability index": 1.86},
      {"variant": "WLYCYDPVMDVQARKQDMNTKRAI", "protein stability index": 1.92},
      {"variant": "WLYCYDPVMDVRARKQDMNTKRAI", "protein stability index": 1.78},
      {"variant": "WLYCYDPVMPVWARKQDMNTKRAI", "protein stability index": 1.72},
      {"variant": "WLYCYDPVMCVWARKQDMNTKRAI", "protein stability index": 1.91},
      {"variant": "WLYCYDPVMWVWARKQDMNTKRAI", "protein stability index": 2.71},
      {"variant": "WLYCYDPVMSVWARKQDMNTKRAI", "protein stability index": 1.99},
      {"variant": "WLYCYDPVMTVWARKQDMNTKRAI", "protein stability index": 1.69},
      {"variant": "WLYCYDPVMGVWARKQDMNTKRAI", "protein stability index": 2.77},
      {"variant": "WLYCYDPVMFVWARKQDMNTKRAI", "protein stability index": 1.54},
      {"variant": "WLYCYDPVMNVWARKQDMNTKRAI", "protein stability index": 2.1},
      {"variant": "WLYCYDPVMHVWARKQDMNTKRAI", "protein stability index": 2.11},
      {"variant": "WLYCYDPVMVVWARKQDMNTKRAI", "protein stability index": 1.52},
      {"variant": "WLYCYDPVMQVWARKQDMNTKRAI", "protein stability index": 2.74},
      {"variant": "WLYCYDPVMMVWARKQDMNTKRAI", "protein stability index": 1.59},
      {"variant": "WLYCYDPVMKVWARKQDMNTKRAI", "protein stability index": 3.09},
      {"variant": "WLYCYDPVMLVWARKQDMNTKRAI", "protein stability index": 2.82},
      {"variant": "WLYCYDPVMYVWARKQDMNTKRAI", "protein stability index": 1.92},
      {"variant": "WLYCYDPVMAVWARKQDMNTKRAI", "protein stability index": 1.88},
      {"variant": "WLYCYDPVMEVWARKQDMNTKRAI", "protein stability index": 2.19},
      {"variant": "WLYCYDPVMRVWARKQDMNTKRAI", "protein stability index": 2.34}
    ]}
  ]
}
